Here are results for one substance from patent US20240052052A1.

The target in assay [1] is human CD24 (human) (UniProt P25063). The experiment in a line: FACS, OCI-LY1 cells.
Assay [2] has the same target. As to the kind of experiment: FACS, MDA-MB-468 cells.
Assay [3] has the same target. The experiment in a line: FACS, 5637 cells. (Flow cytometry measures light scatter and fluorescence of single cells or particles in a stream.)
The target is the same in assay [4]. As to the kind of experiment: FACS, 293F-hCD24 cells.
For assay [5] the target is unchanged. As to the kind of experiment: FACS, Nalm1 cells.
Assay [6] has the same target. The experiment in a line: FACS, A549 cells.
Assay [7] shares this target. The experiment in a line: FACS, MCF7 cells.
The target is the same in assay [8]. The experiment in a line: FACS, HT-29 cells.
The target is the same in assay [9]. As to the kind of experiment: FACS, CHOK1-hCD24 cells.
Assay [10] has the same target. The experiment in a line: FACS, SU-DHL6 cells.
Assay [11] shares this target. As to the kind of experiment: FACS, OCI-LY7 cells.
For assay [12] the target is unchanged. The experiment in a line: FACS, H1975 cells.

Chain of human CD24 (human) (P25063 27-59): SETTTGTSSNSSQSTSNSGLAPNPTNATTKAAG

With mIgG ctrl (antibody), the FACS MFI in assay [1] came out at 197; in [2] it was 190; in [3], 185; in [4], 185; in assay [5], 175; in assay [6], 167. Moreover, the FACS MFI in assay [7] came to 187; in [8], 194; in assay [9] it was 177; in assay [10] it was 188; in assay [11], 186; in assay [12] it was 203. Also, the Max MFI in assay [2] stood at 190; in assay [3], 185; in assay [4] it was 185; in [5], 175; in [6], 167; in [7], 187. Also, the Max MFI is 194 in assay [8], 189 in assay [9] and 203 in [12].
